Biological target: IKKβ-IKKγ complexes (Homo sapiens, UniProt O14920+Q9Y6K9)
Test: In vitro association of IKKβ with GST-IKKγ in absence and presence of MUC1-CD proteins
Type: binding
Conditions: purified IKKβ and GST-IKKγ, with or without added MUC1 protein
Protocol: FIG. 7C is a series of photographs of immunoblots. GST- or GST-IKKγ bound to glutathione beads was incubated with IKKβ in the absence and presence of MUC1-CD protein. The precipitates were immunoblotted (IB) with anti-IKKβ (upper panel). Input amounts of the various proteins were assessed by immunoblotting with the indicated antibodies (lower 3 panels). The molecular weights of proteins (as indicated on the left of the photographs) are expressed as kilodaltons (kDa).
FIG. 12 is a series of photographs of immunoblots. GST, and GST-IKKγ fusion proteins bound to glutathione beads were incubated with MUC1-CD, MUC1-CD(mSRM), or IKKβ proteins as indicated. The GST-pull down precipitates were immunoblotted (IB) with antibodies specific for IKKγ (top panel), IKKβ (middle panel), or MUC1 (bottom panel) as indicated. The molecular weights of proteins (as indicated on the left of the photographs) are expressed as kilodaltons (kDa).
In vitro binding assays. Purified GST-MUC1-CD (glutathione s-transferase fused to the MUC1-CD polypeptide) was cleaved with thrombin to remove the GST moiety. […] Adsorbates to glutathione-conjugated beads were analyzed by immunoblotting.

Chain of IKKβ-IKKγ complexes (O14920 whole entry): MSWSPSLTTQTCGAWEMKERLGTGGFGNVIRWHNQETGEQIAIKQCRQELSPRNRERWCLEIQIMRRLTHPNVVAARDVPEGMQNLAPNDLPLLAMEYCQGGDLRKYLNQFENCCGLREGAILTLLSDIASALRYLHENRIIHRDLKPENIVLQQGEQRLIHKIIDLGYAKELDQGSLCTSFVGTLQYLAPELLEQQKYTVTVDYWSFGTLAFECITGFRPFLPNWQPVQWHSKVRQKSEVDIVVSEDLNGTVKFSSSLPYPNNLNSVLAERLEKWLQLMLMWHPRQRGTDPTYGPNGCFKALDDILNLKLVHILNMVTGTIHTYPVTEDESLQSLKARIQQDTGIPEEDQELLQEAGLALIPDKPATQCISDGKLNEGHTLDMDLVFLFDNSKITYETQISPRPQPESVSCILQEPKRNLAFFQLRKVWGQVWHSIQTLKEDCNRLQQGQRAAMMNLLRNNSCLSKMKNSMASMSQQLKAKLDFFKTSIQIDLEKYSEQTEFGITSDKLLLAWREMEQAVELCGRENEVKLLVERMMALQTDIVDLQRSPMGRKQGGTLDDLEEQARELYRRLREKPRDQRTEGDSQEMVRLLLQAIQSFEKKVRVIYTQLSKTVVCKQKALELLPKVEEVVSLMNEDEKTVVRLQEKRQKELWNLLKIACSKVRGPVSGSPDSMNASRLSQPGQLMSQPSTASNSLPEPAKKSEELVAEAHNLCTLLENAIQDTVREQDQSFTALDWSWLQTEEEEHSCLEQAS
Chain of IKKβ-IKKγ complexes (Q9Y6K9 whole entry): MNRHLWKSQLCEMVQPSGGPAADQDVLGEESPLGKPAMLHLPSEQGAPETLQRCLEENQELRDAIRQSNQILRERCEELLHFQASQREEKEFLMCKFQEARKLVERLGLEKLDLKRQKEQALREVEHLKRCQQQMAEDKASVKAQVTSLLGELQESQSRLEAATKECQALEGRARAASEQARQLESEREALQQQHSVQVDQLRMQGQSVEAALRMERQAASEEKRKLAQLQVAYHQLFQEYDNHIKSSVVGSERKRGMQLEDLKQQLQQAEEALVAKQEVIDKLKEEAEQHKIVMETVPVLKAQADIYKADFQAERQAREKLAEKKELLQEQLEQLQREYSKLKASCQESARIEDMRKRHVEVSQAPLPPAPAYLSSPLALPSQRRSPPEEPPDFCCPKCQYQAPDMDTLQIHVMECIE

Which “interaction between IKKβ and IKKγ” value does the source give for “MUC1-CD: 72 amino acid cytoplasmic domain of human MUC1, SEQ ID NO:2” here?
The value was “increases the interaction between IKKβ and IKKγ”.

Reference: US8129345B2, “MUC1-IκB kinase complexes and their activities” (Dana-Farber Cancer Institute, Inc., priority 2006, dated 2012)
